The text below walks through data of patent US20080306007A1, “AGENTS FOR PROPHYLAXIS OR TREATMENT OF NEUROLOGICAL RELATED DISEASES AND CONDITIONS” (Newcastle Innovation Limited, priority 2007, published 2008).

Experiment [1] concerns cerebellar granule neurons (CGNs). As to the kind of experiment: FM4-64 SV turnover in transfected cerebellar granule neurons (Example 1). In kind it is cell-based, rat. The following applies: two sequential KCl stimuli. How it is done:
Primary cerebellar granule neuron (CGN) cultures were prepared from 7-day old Sprague-Dawley rat pups as previously described (Tan et al. 2003). In brief, neurons were plated on poly-D-lysine coated glass coverslips at a density of 1.5×10^5 cells/coverslip. Neurons were cultured in MEM containing Earle's salts plus 10% (v/v) foetal calf serum, 25 mM KCl, 30 mM glucose, 2 mM glutamine, 100 U/ml penicillin and 100 μg/ml streptomycin at 37° C., in a humidified atmosphere of 5% CO2. The culture medium was supplemented with 10 μM cytosine arabinoside after 24 hours. Transfections were carried out using an established calcium phosphate precipitation protocol. CGNs were transiently transfected with 1.5 μg of DNA between 7-10 days in vitro and were used 48 h later.
The effect of overexpression of dynamin I-GFP constructs on SV recycling in CGNs was monitored using the styryl dye FM4-64 (Molecular Probes). The extent of FM4-64 loading was quantified by normalising the fluorescence value at the start of stimulation to an arbitrary value and monitoring the total decrease on unloading with a dual KCl stimulus. The rate of FM4-64 unloading (as a measure of SV exocytosis) was estimated by determining the time taken for individual nerve terminals to lose 50% of their dye content on stimulation of unloading. These values were normalised to untransfected nerve terminals within the same field of view. SV exocytosis and recycling was also monitored using the pH-sensitive VAMP-GFP (synaptopHluorin). Dynamin constructs linked to mCerulean rather than to GFP were used in this part of the study. CGNs were co-transfected with synaptopHluorin and either DynI^WT-mCerulean, DynI^dmA-mCerulean or Dyn^dmE-mCerulean and stimulated with 50 mM KCl for 20 sec. The evoked synaptopHluorin response was recorded at 500 nm excitation and 510-550 nm emission (mCerulean fluorescence was not detectable at this wavelength). Co-expression of dynamin I was confirmed by recording at 430 nm excitation. Responses were analysed by calculating the increased fluorescence of synaptopHluorin over baseline for individual nerve terminals and then normalising the maxima and minima to 1 and 0.
To show the key role of the phosphorylation sites by independent methods in cultured neurons their role in SV turnover in nerve terminals of CGNs transfected with dynamin I-GFP was examined. SV turnover in neurons transfected with DynI^WT-GFP was indistinguishable from that in untransfected neurons (FIG. 6a-c). […] The extent of HM4-64 accumulation and thus SV turnover, was quantified from the change in fluorescence (AF) by unloading the CGN terminals with two sequential KCl stimuli (S1 and S2) (FIG. 6j). The total SV recycling pool was reduced by approximately 70% in CGNs transfected with DynI^dmA-GFP (28±3.5% of control) and 40% with DynI^dmE-GFP (64.4±6.2% of control) (FIG. 6k). However, transfection of DynI^WT-GFP had no detectable effect (100.1±5.2% of control, FIG. 6k).

Experiment [2] shares this test system. Put plainly: FM4-64 synaptic vesicle recycling in transfected CGNs (Example 2). The following applies: single 50 mM KCl stimulus. The format is cell-based, rat. The method, then: The effect of overexpression of dynamin constructs on synaptic vesicle recycling in CGNs was monitored using the styryl dye FM4-64. Neurons were removed from the culture medium and left to repolarise for 10 min in incubation medium (170 mM NaCl, 3.5 mM KCl, 0.4 mM KH2PO4, 20 mM TES (N-tris[hydroxy-methyl]-methyl-2-aminoethane-sulphonic acid), 5 mM NaHCO3, 5 mM glucose, 1.2 mM Na2SO4, 1.2 mM MgCl2, 1.3 mM CaCl2, pH 7.4). Neurons were then loaded with FM4-64 by evoking SV recycling using KCl stimulation medium (incubation medium supplemented with 50 mM KCl and 10 μM FM4-64, 50 mM NaCl being removed to maintain osmolarity) for 2 min. Cells were washed with incubation medium and mounted on an epifluorescence microscope (Olympus IX81). After 10 min, FM4-64 was unloaded from the cells by exposure to a 30 s pulse of stimulation medium. Transfected neurons were visualised using a Olympus Plan-Apochromat x40 objective at 480 nm excitation and a band-pass emission filter of 515-555 nm. FM4-64 unloading was monitored at 555 nm excitation and a long pass emission filter of 600 nm. The decrease in fluorescence intensity of FM4-64 loaded nerve terminals on stimulation was visualised using a Hammamatsu Orca-ERG CCD digital camera (Hammamatsu City, Japan) and Metamorph 6.3 imaging software (Molecular Devices, Downingtown, Pa.). The extent of FM4-64 unloading was quantified by normalising the fluorescence value at the start of stimulation to an arbitrary value and monitoring the total decrease in fluorescence on unloading with the KCl stimulus. The kinetics of FM4-64 unloading were estimated by normalising the start and completion of unloading to 1 and 0 respectively. Other methods employed in this study are as described in Example 1.
Synaptic vesicle turnover in neurons transfected with DynI-WT-GFP was indistinguishable from that in untransfected neurons. […] The extent of synaptic vesicle turnover was quantified by unloading the terminals with a single 50 mM KCl stimulus, which is considered mild. The total synaptic vesicle recycling pool was unaffected in CGNs transfected with DynI-WT-GFP, while after transfection with DynI-2B-GFP it was reduced. The inhibition can be solely accounted for by an effect on SV endocytosis, since there was no effect on the kinetics of dye unloading. Next, the effects of DynI-PB2-GFP and DynI-3B-GFP on SVE were examined. These two mutants were chosen since they specifically fail to bind syndapin I and endophilin I, respectively, providing a clear distinction between them.
Again, there was no effect on exocytosis, indicating an inhibition of SVE.

B1: DynI^WT-GFP: Transfected GFP-tagged wild-type dynamin I (protein, UniProt Q05193 1-864, looked up)
Dynamin-1: MGNRGMEDLIPLVNRLQDAFSAIGQNADLDLPQIAVVGGQSAGKSSVLENFVGRDFLPRGSGIVTRRPLVLQLVNATTEYAEFLHCKGKKFTDFEEVRLEIEAETDRVTGTNKGISPVPINLRVYSPHVLNLTLVDLPGMTKVPVGDQPPDIEFQIRDMLMQFVTKENCLILAVSPANSDLANSDALKVAKEVDPQGQRTIGVITKLDLMDEGTDARDVLENKLLPLRRGYIGVVNRSQKDIDGKKDITAALAAERKFFLSHPSYRHLADRMGTPYLQKVLNQQLTNHIRDTLPGLRNKLQSQLLSIEKEVEEYKNFRPDDPARKTKALLQMVQQFAVDFEKRIEGSGDQIDTYELSGGARINRIFHERFPFELVKMEFDEKELRREISYAIKNIHGIRTGLFTPDMAFETIVKKQVKKIREPCLKCVDMVISELISTVRQCTKKLQQYPRLREEMERIVTTHIREREGRTKEQVMLLIDIELAYMNTNHEDFIGFANAQQRSNQMNKKKTSGNQDEILVIRKGWLTINNIGIMKGGSKEYWFVLTAENLSWYKDDEEKEKKYMLSVDNLKLRDVEKGFMSSKHIFALFNTEQRNVYKDYRQLELACETQEEVDSWKASFLRAGVYPERVGDKEKASETEENGSDSFMHSMDPQLERQVETIRNLVDSYMAIVNKTVRDLMPKTIMHLMINNTKEFIFSELLANLYSCGDQNTLMEESAEQAQRRDEMLRMYHALKEALSIIGDINTTTVSTPMPPPVDDSWLQVQSVPAGRRSPTSSPTPQRRAPAVPPARPGSRGPAPGPPPAGSALGGAPPVPSRPGASPDPFGPPPQVPSRPNRAPPGVPSRSGQASPSRPESPRPPFDL
modifications: GFP tag
notes: Transfected GFP-tagged wild-type dynamin I
With B1, the “total SV recycling pool (FM4-64)” value in experiment [1] is 100.1±5.2 % of control. Moreover, the “total synaptic recycling pool (FM4-64)” value in experiment [2] is reported as 94.0±5.1 % of control.

B2: DynI-9A-GFP: GFP-tagged dynamin I R838E (site 9) mutant; abolishes amphiphysin I binding (protein, UniProt Q05193 1-864, looked up, variant R838E)
Dynamin-1: MGNRGMEDLIPLVNRLQDAFSAIGQNADLDLPQIAVVGGQSAGKSSVLENFVGRDFLPRGSGIVTRRPLVLQLVNATTEYAEFLHCKGKKFTDFEEVRLEIEAETDRVTGTNKGISPVPINLRVYSPHVLNLTLVDLPGMTKVPVGDQPPDIEFQIRDMLMQFVTKENCLILAVSPANSDLANSDALKVAKEVDPQGQRTIGVITKLDLMDEGTDARDVLENKLLPLRRGYIGVVNRSQKDIDGKKDITAALAAERKFFLSHPSYRHLADRMGTPYLQKVLNQQLTNHIRDTLPGLRNKLQSQLLSIEKEVEEYKNFRPDDPARKTKALLQMVQQFAVDFEKRIEGSGDQIDTYELSGGARINRIFHERFPFELVKMEFDEKELRREISYAIKNIHGIRTGLFTPDMAFETIVKKQVKKIREPCLKCVDMVISELISTVRQCTKKLQQYPRLREEMERIVTTHIREREGRTKEQVMLLIDIELAYMNTNHEDFIGFANAQQRSNQMNKKKTSGNQDEILVIRKGWLTINNIGIMKGGSKEYWFVLTAENLSWYKDDEEKEKKYMLSVDNLKLRDVEKGFMSSKHIFALFNTEQRNVYKDYRQLELACETQEEVDSWKASFLRAGVYPERVGDKEKASETEENGSDSFMHSMDPQLERQVETIRNLVDSYMAIVNKTVRDLMPKTIMHLMINNTKEFIFSELLANLYSCGDQNTLMEESAEQAQRRDEMLRMYHALKEALSIIGDINTTTVSTPMPPPVDDSWLQVQSVPAGRRSPTSSPTPQRRAPAVPPARPGSRGPAPGPPPAGSALGGAPPVPSRPGASPDPFGPPPQVPSRPNEAPPGVPSRSGQASPSRPESPRPPFDL
modifications: GFP tag
Consider B2, for which, in experiment [2], the “total synaptic recycling pool (FM4-64)” value is 71.9±2.7 % of control.

B3: DynI-3B-GFP: GFP-tagged dynamin I point mutant P793A (site 3); fails to bind endophilin I (protein)
chain: MGNRGMEDLIPLVNRLQDAFSAIGQNADLDLPQIAVVGGQSAGKSSVLENFVGRDFLPRGSGIVTRRPLVLQLVNSTTEYAEFLHCKGKKFTDFEEVRLEIEAETDRVTGTNKGISPVPINLRVYSPHVLNLTLVDLPGMTKVPVGDQPPDIEFQIRDMLMQFVTKENCLILAVSPANSDLANSDALKIAKEVDPQGQRTIGVITKLDLMDEGTDARDVLENKLLPLRRGYIGVVNRSQKDIDGKKDITAALAAERKFFLSHPSYRHLADRMGTPYLQKVLNQQLTNHIRDTLPGLRNKLQSQLLSIEKEVDEYKNFRPDDPARKTKALLQMVQQFAVDFEKRIEGSGDQIDTYELSGGARINRIFHERFPFELVKMEFDEKELRREISYAIKNIHGIRTGLFTPDLAFEATVKKQVQKLKEPSIKCVDMVVSELTSTIRKCSEKLQQYPRLREEMERIVTTHIREREGRTKEQVMLLIDIELAYMNTNHEDFIGFANAQQRSNQMNKKKTSGNQDEILVIRKGWLTINNIGIMKGGSKEYWFVLTAENLSWYKDDEEKEKKYMLSVDNLKLRDVEKGFMSSKHIFALFNTEQRNVYKDYRQLELACETQEEVDSWKASFLRAGVYPERVGDKEKASETEENGSDSFMHSMDPQLERQVETIRNLVDSYMAIVNKTVRDLMPKTIMHLMINNTKEFIFSELLANLYSCGDQNTLMEESAEQAQRRDEMLRMYHALKEALSIIGDINTTTVSTPMPPPVDDSWLQVQSVPAGRRSPTSSPTPQRRAPAVPPARAGSRGPAPGPPPAGSALGGAPPVPSRPGASPDPFGPPPQVPSRPNRAPPGVPSRSGQASPSRPESPRPPFDL
modifications: left off: large carriers
For B3, the “total synaptic recycling pool (FM4-64)” value in experiment [2] is on record as 56.8±4.4 % of control.
